The text below walks through data of IntAct's records for PubMed 25910212.

First the molecules themselves.
B1: Sulfotransferase 2B1 (Homo sapiens), O00204 (parent)
chain: MDGPAEPQIPGLWDTYEDDISEISQKLPGEYFRYKGVPFPVGLYSLESISLAENTQDVRDDDIFIITYPKSGTTWMIEIICLILKEGDPSWIRSVPIWERAPWCETIVGAFSLPDQYSPRLMSSHLPIQIFTKAFFSSKAKVIYMGRNPRDVVVSLYHYSKIAGQLKDPGTPDQFLRDFLKGEVQFGSWFDHIKGWLRMKGKDNFLFITYEELQQDLQGSVERICGFLGRPLGKEALGSVVAHSTFSAMKANTMSNYTLLPPSLLDHRRGAFLRKGVCGDWKNHFTVAQSEAFDRAYRKQMRGMPTFPWDEDPEEDGSPDPEPSPEPEPKPSLEPNTSLEREPRPNSSPSPSPGQASETPHPRPS
B2: U4/U6 small nuclear ribonucleoprotein Prp31 (Homo sapiens), Q8WWY3 (parent)
chain: MSLADELLADLEEAAEEEEGGSYGEEEEEPAIEDVQEETQLDLSGDSVKTIAKLWDSKMFAEIMMKIEEYISKQAKASEVMGPVEAAPEYRVIVDANNLTVEIENELNIIHKFIRDKYSKRFPELESLVPNALDYIRTVKELGNSLDKCKNNENLQQILTNATIMVVSVTASTTQGQQLSEEELERLEEACDMALELNASKHRIYEYVESRMSFIAPNLSIIIGASTAAKIMGVAGGLTNLSKMPACNIMLLGAQRKTLSGFSSTSVLPHTGYIYHSDIVQSLPPDLRRKAARLVAAKCTLAARVDSFHESTEGKVGYELKDEIERKFDKWQEPPPVKQVKPLPAPLDGQRKKRGGRRYRKMKERLGLTEIRKQANRMSFGEIEEDAYQEDLGFSLGHLGKSGSGRVRQTQVNEATKARISKTLQRTLQKQSVVYGGKSTIRDRSSGTASSVAFTPLQGLEIVNPQAAEKKVAEANQKYFSSMAEFLKVKGEKSGLMST
partner: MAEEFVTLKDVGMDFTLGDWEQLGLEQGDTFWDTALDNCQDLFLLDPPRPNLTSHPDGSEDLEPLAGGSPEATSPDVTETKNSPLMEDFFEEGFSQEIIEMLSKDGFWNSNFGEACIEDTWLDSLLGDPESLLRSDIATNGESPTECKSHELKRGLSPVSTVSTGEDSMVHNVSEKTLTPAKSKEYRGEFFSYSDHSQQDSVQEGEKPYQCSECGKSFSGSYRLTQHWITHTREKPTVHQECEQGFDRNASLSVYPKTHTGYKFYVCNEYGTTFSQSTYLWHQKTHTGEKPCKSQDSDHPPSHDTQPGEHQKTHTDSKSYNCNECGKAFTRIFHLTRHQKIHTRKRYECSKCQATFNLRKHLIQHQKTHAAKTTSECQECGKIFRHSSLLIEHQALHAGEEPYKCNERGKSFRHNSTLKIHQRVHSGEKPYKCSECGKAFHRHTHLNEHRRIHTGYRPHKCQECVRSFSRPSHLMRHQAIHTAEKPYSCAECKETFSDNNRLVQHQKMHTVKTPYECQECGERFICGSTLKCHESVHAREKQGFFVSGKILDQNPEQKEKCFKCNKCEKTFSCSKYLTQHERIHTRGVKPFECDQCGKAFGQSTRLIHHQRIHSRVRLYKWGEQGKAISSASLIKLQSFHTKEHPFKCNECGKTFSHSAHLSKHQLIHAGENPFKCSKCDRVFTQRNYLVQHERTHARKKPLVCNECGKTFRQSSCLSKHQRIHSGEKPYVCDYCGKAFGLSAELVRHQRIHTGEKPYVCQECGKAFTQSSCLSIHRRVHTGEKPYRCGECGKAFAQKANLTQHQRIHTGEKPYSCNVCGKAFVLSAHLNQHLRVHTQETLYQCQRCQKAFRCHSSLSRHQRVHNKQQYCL
B3: Acetylcholine receptor subunit gamma (Homo sapiens), P07510-2 (parent)
chain: MHGGQGPLLLLLLLAVCLGAQGRNQEERLLADLMQNYDPNLRPAERDSDVVNVSLKLTLTNLISLNEREEALTTNVWIEMQWCDYRLRWDPRDYEGLWVLRVPSTMVWRPDIVLENKSQTYSTNEIDLQLSQEDGQTIEWIFIDPEAFTENGEWAIQHRPAKMLLDPAAPAQEAGHQKVVFYLLIQRKPLFYVINIIAPCVLISSVAILIHFLPAKAGGQKCTVAINVLLAQTVFLFLVAKKVPETSQAVPLISKYLTFLLVVTILIVVNAVVVLNVSLRSPHTHSMARGVRKVFLRLLPQLLRMHVRPLAPAAVQDTQSRLQNGSSGWSITTGEEVALCLPRSELLFQQWQRQGLVAAALEKLEKGPELGLSQFCGSLKQAAPAIQACVEACNLIACARHQQSHFDNGNEEWFLVGRVLDRVCFLAMLSLFICGTAGIFLMAHYNRVPALPFPGDPRPYLPSPD
partner: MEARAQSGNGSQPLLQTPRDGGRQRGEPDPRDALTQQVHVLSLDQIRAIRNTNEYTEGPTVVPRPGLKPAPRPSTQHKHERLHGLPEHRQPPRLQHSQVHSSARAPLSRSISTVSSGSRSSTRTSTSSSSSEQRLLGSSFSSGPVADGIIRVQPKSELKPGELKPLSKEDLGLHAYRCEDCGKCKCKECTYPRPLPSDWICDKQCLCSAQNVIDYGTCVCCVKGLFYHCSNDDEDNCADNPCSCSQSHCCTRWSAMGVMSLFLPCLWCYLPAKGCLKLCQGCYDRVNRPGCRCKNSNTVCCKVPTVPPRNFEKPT
B4: Krev interaction trapped protein 1 (Homo sapiens), O00522 (parent)
chain: MGNPENIEDAYVAVIRPKNTASLNSREYRAKSYEILLHEVPIEGQKKKRKKVLLETKLQGNSEITQGILDYVVETTKPISPANQGIRGKRVVLMKKFPLDGEKMGREASLFIVPSVVKDNTKYTYTPGCPIFYCLQDIMRVCSESSTHFATLTARMLIALDKWLDERHAQSHFIPALFRPSPLERIKTNVINPAYATESGQTENSLHMGYSALEIKSKMLALEKADTCIYNPLFGSDLQYTNRVDKVVINPYFGLGAPDYSKIQIPKQEKWQRSMSSVTEDKERQWVDDFPLHRSACEGDSELLSRLLSERFSVNQLDSDHWAPIHYACWYGKVEATRILLEKGKCNPNLLNGQLSSPLHFAAGGGHAEIVQILLNHPETDRHITDQQGRSPLNICEENKQNNWEEAAKLLKEAINKPYEKVRIYRMDGSYRSVELKHGNNTTVQQIMEGMRLSQETQQYFTIWICSENLSLQLKPYHKPLQHVRDWPEILAELTNLDPQRETPQLFLRRDVRLPLEVEKQIEDPLAILILFDEARYNLLKGFYTAPDAKLITLASLLLQIVYGNYESKKHKQGFLNEENLKSIVPVTKLKSKAPHWTNRILHEYKNLSTSEGVSKEMHHLQRMFLQNCWEIPTYGAAFFTGQIFTKASPSNHKVIPVYVGVNIKGLHLLNMETKALLISLKYGCFMWQLGDTDTCFQIHSMENKMSFIVHTKQAGLVVKLLMKLNGQLMPTERNS
partner: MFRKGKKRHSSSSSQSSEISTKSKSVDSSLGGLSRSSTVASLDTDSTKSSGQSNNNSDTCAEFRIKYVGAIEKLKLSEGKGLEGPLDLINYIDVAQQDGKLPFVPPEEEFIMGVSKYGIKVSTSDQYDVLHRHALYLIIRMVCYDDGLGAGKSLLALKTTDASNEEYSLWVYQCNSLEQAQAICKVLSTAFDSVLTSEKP
B5: EF-hand domain-containing protein 1 (Homo sapiens), Q5JVL4 (parent)
chain: MVSNPVHGLPFLPGTSFKDSTKTAFHRSQTLSYRNGYAIVRRPTVGIGGDRLQFNQLSQAELDELASKAPVLTYGQPKQAPPADFIPAHVAFDKKVLKFDAYFQEDVPMSTEEQYRIRQVNIYYYLEDDSMSVIEPVVENSGILQGKLIKRQRLAKNDRGDHYHWKDLNRGINITIYGKTFRVVDCDQFTQVFLESQGIELNPPEKMALDPYTELRKQPLRKYVTPSDFDQLKQFLTFDKQVLRFYAIWDDTDSMYGECRTYIIHYYLMDDTVEIREVHERNDGRDPFPLLMNRQRVPKVLVENAKNFPQCVLEISDQEVLEWYTAKDFIVGKSLTILGRTFFIYDCDPFTRRYYKEKFGITDLPRIDVSKREPPPVKQELPPYNGFGLVEDSAQNCFALIPKAPKKDVIKMLVNDNKVLRYLAVLESPIPEDKDRRFVFSYFLATDMISIFEPPVRNSGIIGGKYLGRTKVVKPYSTVDNPVYYGPSDFFIGAVIEVFGHRFIILDTDEYVLKYMESNAAQYSPEALASIQNHVRKREAPAPEAESKQTEKDPGVQELEALIDTIQKQLKDHSCKDNIREAFQIYDKEASGYVDRDMFFKICESLNVPVDDSLVKELIRMCSHGEGKINYYNFVRAFSN
partner: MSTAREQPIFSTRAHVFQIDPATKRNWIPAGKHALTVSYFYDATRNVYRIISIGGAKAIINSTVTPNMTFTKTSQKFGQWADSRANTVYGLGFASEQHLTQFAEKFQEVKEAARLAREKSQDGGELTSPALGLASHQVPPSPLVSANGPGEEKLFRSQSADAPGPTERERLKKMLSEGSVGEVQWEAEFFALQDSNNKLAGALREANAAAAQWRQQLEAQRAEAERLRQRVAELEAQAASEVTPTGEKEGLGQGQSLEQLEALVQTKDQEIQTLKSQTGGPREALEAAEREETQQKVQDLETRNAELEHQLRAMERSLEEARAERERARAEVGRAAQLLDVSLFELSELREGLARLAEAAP

Variants of B1 are the subject of one experiment. Particulars: with st1b1_human SULT1B1, O43704.
st1b1_human SULT1B1, O43704, sequence (O43704 whole entry): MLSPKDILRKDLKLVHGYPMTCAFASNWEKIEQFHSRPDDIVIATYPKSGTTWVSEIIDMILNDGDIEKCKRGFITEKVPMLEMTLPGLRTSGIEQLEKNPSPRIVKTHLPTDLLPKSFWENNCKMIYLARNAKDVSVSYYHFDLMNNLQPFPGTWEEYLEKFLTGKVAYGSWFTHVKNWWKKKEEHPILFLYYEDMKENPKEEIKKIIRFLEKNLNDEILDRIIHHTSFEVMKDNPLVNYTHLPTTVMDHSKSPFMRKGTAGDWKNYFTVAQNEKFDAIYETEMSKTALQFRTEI
With D191N, the “effect of a mutation on the interaction” value was “with no effect”.
Turning to R230H, the “effect of a mutation on the interaction” value is “with no effect”.

The variants in a further experiment derive from B1. Particulars: with st1a1_human SULT1A1, P50225.
st1a1_human SULT1A1, P50225, sequence (P50225 whole entry, looked up): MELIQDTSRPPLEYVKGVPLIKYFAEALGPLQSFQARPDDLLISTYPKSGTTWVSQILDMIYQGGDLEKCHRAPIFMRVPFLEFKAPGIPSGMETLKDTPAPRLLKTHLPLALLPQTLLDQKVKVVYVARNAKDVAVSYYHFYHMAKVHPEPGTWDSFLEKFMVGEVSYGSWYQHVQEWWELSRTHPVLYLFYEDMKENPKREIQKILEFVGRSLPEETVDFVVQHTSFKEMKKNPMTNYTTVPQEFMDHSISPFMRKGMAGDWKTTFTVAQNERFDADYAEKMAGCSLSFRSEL
Consider D191N, for which the “effect of a mutation on the interaction” value was “with no effect”.
For the variant R230H, the “effect of a mutation on the interaction” value is listed as “with no effect”.

The next experiment covers variants of B2. Particulars: with zn473_human ZNF473, Q8WTR7.
For the variant L107V, the “effect of a mutation on the interaction” value is on record as “with no effect”.

In a further experiment the parent is B3. Particulars: with spy2_human SPRY2, O43597.
On to R86C, for which the “effect of a mutation on the interaction” value was “disrupting interaction strength”.
Consider V107G, for which the “effect of a mutation on the interaction” value is “disrupting interaction strength”.

The variants in a further experiment derive from B4. Particulars: with itbp1_human ITGB1BP1, O14713.
Turning to D137G, the “effect of a mutation on the interaction” value is “with no effect”.

Another experiment covers variants of B5. Particulars: with home3_human HOMER3, Q9NSC5.
R221H: the “effect of a mutation on the interaction” value is “disrupting interaction strength”.
The same measure, in the same setting: the entry for T508R is “with no effect”.
